# Data published in publication PMC3677877 (PLoS ONE, 2013).
# Several values for one entry are separate records, joined by “and”; a condition that tells them apart may be missing. Equal values may be shown once.
# Assays:
# [1] = target: rKgp: mature recombinant Kgp catalytic domain with the ABM1 motif (Gly681-Ala710) deleted (Porphyromonas gingivalis W50); experiment: enzyme inhibition kinetics
# [2] = target: rKgp: mature recombinant Kgp catalytic domain with the ABM1 motif (Gly681-Ala710) deleted (Porphyromonas gingivalis W50)
# SEC = target: the molecule itself; experiment: SEC
molecule,measurement,setting,value
recombinant Kgp propeptide (thrombin-cleaved; used as DTT-stabilised monomer in the inhibition assays) (from UniProt Q51817 20-228) (domain or fragment),Ki,[1],2010 nM and 2040 nM
iodoacetylated Kgp propeptide monomer (from UniProt Q51817 20-228) (domain or fragment),"inhibition of rKgp by the iodoacetylated monomer (100 mg/L), substrate DQ-BSA",[2],28 % inhibition
recombinant Kgp propeptide (thrombin-cleaved; used as DTT-stabilised monomer in the inhibition assays) (domain or fragment) QSAKIKLDAPTTRTTCTNNSFKQFDASFSFNEVELTKVETKGGTFASVSIPGAFPTGEVGSPEVPAVRKLIAVPVGATPVVRVKSFTEQVYSLNQYGSEKLMPHQPSMSKSDDPEKVPFVYNAAAYARKGFVGQELTQVEMLGTMRGVRIAALTINPVQYDVVANQLKVRNNIEIEVSFQGADEVATQRLYDASFSPYFETAYKQLFNR,stoichiometry N,SEC,2
